The text below walks through data of US20220073599A1 (Hoffmann-La Roche, published 2022).

Assay [1] has as its target T1, human VEGFA-121-His (human, UniProt P15692 181-395).
T1 construct: Prepared in-house; not shown: His tag
T1 sequence: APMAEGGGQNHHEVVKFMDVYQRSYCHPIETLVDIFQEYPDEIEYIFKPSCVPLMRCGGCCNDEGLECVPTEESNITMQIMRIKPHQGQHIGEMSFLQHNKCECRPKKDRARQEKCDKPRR
The assay is described as follows: SPR crossreactivity set-up, VEGF-A121-His captured by anti-His antibody, Fab injected, single cycle kinetics. The protocol:
(§1) An anti-His capturing antibody (GE Healthcare 28995056) was immobilized to a Series S Sensor Chip C1 (GE Healthcare BR100535) using standard amine coupling chemistry resulting in a surface density of approximately 600 resonance units (RU). As running and dilution buffer, HBS-P+ (10 mM HEPES, 150 mM NaCl pH 7.4, 0.05% Surfactant P20) was used. […] A dilution series of the tested antibody (3.7-300 nM, 1:3 dilution) was successively injected for 60 s each, dissociation was monitored for 3600 s at a flow rate of 30 μl/min (single cycle kinetics). The surface was regenerated by injecting 10 mM Glycine pH 1.5 for 60 s at a flow of 5 μl/min. […] Curve fitting was performed using the 1:1 Langmuir binding model within the Biacore® evaluation software.
(§2) Crossreactivity to VEGF-A and ANG2 from other species was assessed as described above in “Materials & general methods” section.

For another assay, the target named is T2, Mouse VEGF-A-121 (mouse, UniProt Q00731-3 27-146).
T2 construct: also called mouse VEGF-A121-His; not shown: His tag
T2 sequence (looked up): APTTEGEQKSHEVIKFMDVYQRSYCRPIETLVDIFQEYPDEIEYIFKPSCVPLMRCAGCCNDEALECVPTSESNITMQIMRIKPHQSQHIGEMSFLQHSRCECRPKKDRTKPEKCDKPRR
The assay is described as above. The protocol: as §1, §2

Assay [2] deals with T1, human VEGFA-121-His. The assay is described as follows: KinExA equilibrium titration in solution, constant VEGFA-121-His. The protocol:
All KinExA® experiments were performed at room temperature (RT) using PBS pH 7.4 with 0.01% BSA and 0.01% Tween® 20 (BioRad, #161-0781) as running buffer. […] A flow rate of 0.25 ml/min was used. […] Antigen-antibody complexes were incubated at RT for at least 8 h to allow equilibrium to be reached. […] Each sample was measured in duplicates for all equilibrium experiments. The KD was obtained from non-linear regression analysis of the data using a one-site homogeneous binding model contained within the KinExA® software (Version 4.0.11) using the “standard analysis” method. The software calculates the KD and determines the 95% confidence interval by fitting the data points to a theoretical KD curve. The 95% confidence interval is given as KD low and KD high.
For orientation: In KinExA the mixture passes briefly over coated beads that capture the unbound partner.

A further assay concerns the target T3, human Ang2-RBD-muFc (human, UniProt O15123 275-496, limits assumed).
T3 construct: also called Human ANG2 (KinExA); not shown: murine Fc (muFc)
T3 sequence: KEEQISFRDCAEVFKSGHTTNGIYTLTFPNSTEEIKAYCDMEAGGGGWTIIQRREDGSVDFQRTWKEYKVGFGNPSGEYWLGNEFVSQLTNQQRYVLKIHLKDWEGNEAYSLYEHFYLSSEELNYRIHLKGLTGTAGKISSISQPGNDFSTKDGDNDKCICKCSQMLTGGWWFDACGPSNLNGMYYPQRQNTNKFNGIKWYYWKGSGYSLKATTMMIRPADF
The assay is described as follows: KinExA equilibrium titration in solution, constant Ang2-RBD-muFc. The protocol: All KinExA® experiments were performed at room temperature (RT) using PBS pH 7.4 with 0.01% BSA and 0.01% Tween® 20 (BioRad, #161-0781) as running buffer. […] A flow rate of 0.25 ml/min was used. A constant amount of Ang2-RBD-muFc (50 pM and in a second experiment 500 pM) was titrated with tested antibody by twofold serial dilution starting at 4 nM (concentration range 1.95 pM-4000 pM). Antigen-antibody complexes were incubated at RT for at least 8 h to allow equilibrium to be reached. Equilibrated mixtures were then drawn through a column of Anti-Ang2 antibody (MAB098) coupled beads in the KinExA® system at a volume of 750 μl for 50 pM constant Ang2 and at a volume of 188 μl for 500 pM constant Ang2 permitting unbound Ang2 to be captured by the beads without perturbing the equilibrium state of the solution. Bound Ang2 was detected using a second biotinylated anti-Ang2 antibody (BAM0981) with a concentration of 250 ng/ml and following by an injection of 250 ng/ml Streptavidin Alexa Fluor™ 647 conjugate in sample buffer. Each sample was measured in duplicates for all equilibrium experiments. The KD was obtained from non-linear regression analysis of the data using a one-site homogeneous binding model contained within the KinExA® software (Version 4.0.11) using the “standard analysis” method. […]

Residue numbers refer to the chain shown, from its start.

B1: bispecific anti-VEGF-A/anti-ANG2 Fab fragment P1AD9820 (Fab, V domains shown)
VH: SEHLVESGGGLVKPGGSLRLSCATADFFEYDDMSWVRQAPGKGLEWVGSISPKGDHKYLNTKFIGRFTISRDDSKNTLYLQMNSLRAEDTAVYYCARDVGFFDWWGQGTLVTVSS
VL: AIYMHQEPSSLSASVGDRVTITCHGSYWLNSEVAWYQQKPGKAPKLLIFDGDFKVYEVPSRFSGSGSHEDYTLTISSLQPEDFATYYCQQYRYHPYTFGHGTKVEIKR
notes: Bispecific Fab with two paratopes in one VH/VL pair; also called P1AD9820 Fab
For B1, in the assay with human VEGFA-121-His [1], the Kd came out at 0.0455 nM, the koff worked out at 2.21e-05 s⁻¹, the kon amounted to 486000 M⁻¹ s⁻¹ and the “t1/2” value was found to be 8.72 h. For the same molecule, in the assay with Mouse VEGF-A-121, the Kd is 0.368 nM, the koff turned out to be 0.000183 s⁻¹, the kon was 497000 M⁻¹ s⁻¹ and the “t1/2” value turned out to be 1.05 h.

B2: bispecific anti-VEGF-A/anti-ANG2 Fab fragment P1AA8906 (Fab, V domains shown)
VH: DFQLVESGGGLVKPGGSLRLSCAASYEFEYDDMSWVRQAPGKGLEWVGSISPKGGSTYYNTKFIGRFTISRDNSKNTLYLQMNSLRAEDTAVYYCARDVGFFDMWGQGTLVTVSS
VL: B1 VL with N30S, S31N, E32Y, V33L, G51A, D52R, F53W, K54L, Y56H, E57G
notes: Bispecific Fab with two paratopes in one VH/VL pair (DutaFab); CH1 and Ckappa
As to B2, the figures for the Kd with human VEGFA-121-His [2] and with human Ang2-RBD-muFc were 0.0109 nM and 7.18 nM, respectively.

Broadly, the Kd is the free concentration of one partner at which half of the binding sites on the other are occupied at equilibrium, for simple one-to-one binding. Read a high Kd as a looser complex. As a reminder, the koff is the first-order rate constant of dissociation. The low end stands for a long-lived complex, the high end for a short-lived complex. Usually kon stands for the second-order rate constant of association.
